This is an account of results in PMC10934782, “Electrochemical Sensors Based on Self-Assembling Peptide/Carbon Nanotube Nanocomposites for Sensitive Detection of Bisphenol A” (Sensors (Basel, Switzerland), 2024).

This data set deals with the molecule itself. Nature of the data set: negative-stain TEM + turbidity + circular dichroism + rheology; Z23 alone (no MWCNTs) in PBS, assembly triggered by adding 10x PBS to the aqueous peptide solution; room temperature (rheology 1 wt% in PBS at 25 °C); turbidity at 313 nm. (In general: Circular dichroism is the unequal absorption of left and right circularly polarised light.)

B1: cationic amphiphilic self-assembling peptide (SAP) Z23 (peptide)
peptide: Ac-KFKFQFKFK-NH2
notes: Designed self-assembling peptide; forms nanofibers and a hydrogel in PBS; source: synthetic peptide; bought: Shanghai Top-peptide Biotechnology Co. Ltd. (purity > 95%)
For B1, the binding result is on record as “binds”.
